Earlier results, collected in publication PMC7751257.

Target: Spike RBD RBD (SARS-CoV-2) (UniProt P0DTC2)

SBP1 α1 helix 23-mer (from UniProt Q9BYF1)
Kd: 47 nM
